According to article PMC9917816, “STS1 and STS2 Phosphatase Inhibitor Baicalein Enhances the Expansion of Hematopoietic and Progenitor Stem Cells and Alleviates 5-Fluorouracil-Induced Myelosuppression” (International Journal of Molecular Sciences, 2023):

B1: STS2-HP (STS2 histidine phosphatase domain) (Homo sapiens) (protein)
chain: SLQALQATVARKSVLVVRHGERVDQIFGKAWLQQCSTPDGKYYRPDLNFPCSLPRRSRGIKDFENDPPLSSCGIFQSRIAGDALLDSGIRISSVFASPALRCVQTAKLILEELKLEKKIKIRVEPGIFEWTKWEAGKTTPTLMSLEELKEANFNIDTDYRPAFPLSALMPAESYQEYMDRCTASMVQIVNTCPQDTGVILIVSHGSTLDSCTRPLLGLPPRECGDFAQLVRKIPSLGMCFCEENKEEGKWELVNPPVKTLTHGANAAFNWRNWISGN
B2: STS1-HP (STS1 histidine phosphatase domain) (Homo sapiens) (protein)
chain: GPQKRCLFVCRHGERMDVVFGKYWLSQCFDAKGRYIRTNLNMPHSLPQRSGGFRDYEKDAPITVFGCMQARLVGEALLESNTIIDHVYCSPSLRCVQTAHNILKGLQQENHLKIRVEPGLFEWTKWVAGSTLPAWIPPSELAAANLSVDTTYRPHIPISKLVVSESYDTYISRSFQVTKEIISECKSKGNNILIVAHASSLEACTCQLQGLSPQNSKDFVQMVRKIPYLGFCSCEELGETGIWQLTDPPILPLTHGPTGGFNWRETLLQE

Substrate: O=[N+]([O-])c1ccc(OP(=O)(O)O)cc1
Experiment: purified protein
Assay type: biochemical, Homo sapiens
Conditions: 25 mM HEPES, 50 mM NaCl, 5 mM DTT, 2.5 mM EDTA, pH 7.2, 25 °C
[1] = 20 min, text (b9) says STS2 has lower Km than STS1, against the table

Protein | Km [1] [mM] | kcat [1] [s⁻¹] | kcat/Km [1] [M⁻¹ s⁻¹] | Km (10 min) [mM] | kcat (10 min) [s⁻¹] | kcat/Km (10 min) [M⁻¹ s⁻¹]
B1 | 5.39 ± 0.52 | 0.27 ± 0.005 | 50.5 ± 4.51 | – | – | –
B2 | – | – | – | 3.52 ± 0.44 | 67.7 ± 1.31 | 19500 ± 2100
